Experimental data from article PMC4422613, “The Inner Nuclear Membrane Protein Nemp1 Is a New Type of RanGTP-Binding Protein in Eukaryotes” (PLoS ONE, 2015).

How the values were obtained:
[1] = biological target: recombinant Myc-Mm_RanQ69L(GTP) (Mus musculus, UniProt P62827 1-216, Q69L); assay: pull-down; purified GST-Mm_Bt (2.8 μg) on glutathione-Sepharose beads incubated with purified Myc-RanQ69L (5 μg) loaded with 2 mM GTP, binding buffer, 4 °C, 2 h; details: both partners purified
GST-Mm_RanQ69L = GST-Mm_RanQ69L (Mus musculus, UniProt P62827 1-216, Q69L); assay: pull-down; competition: 0.1, 1, 10 μg recombinant Mm_Bt added to 10 μg GST-RanQ69L on glutathione beads in embryo lysate holding FLAG-importin β; read-out is the importin β pulled down; details: both partners purified

Binder | binding result [1] | binding result (GST-Mm_RanQ69L)
GST-Mm_Bt (domain or fragment) PVPPRLLTEEEYRIQGEVETQKALQELREFCNSPECSAWKTISRIQSPKRFADFVEGSFHLTPNEVSVHEQEYGLGSIFTQDEELSSEEEGSEYPTFTQNNFLT | binds | 
recombinant Mm_Bt (domain or fragment, source: recombinant) PVPPRLLTEEEYRIQGEVETQKALQELREFCNSPECSAWKTISRIQSPKRFADFVEGSFHLTPNEVSVHEQEYGLGSIFTQDEELSSEEEGSEYPTFTQNNFLT |  | binds
